Results taken from the DeepSol protein solubility set.

Assay: soluble on expression in E. coli; label from the status in PepcDB or PDB records

Soluble on expression in E. coli, not soluble:
MGSDKIHHHHHHMNAMTQVSPLLEMRGICKTFPGVKALDDVSFDIYPGEVHMLLGENGAGKSSLMKVLCGVYVADAGEFHHQGQRVEVSGPADTMRLGIAVIFQEFSLVPYLDIAQNIFLGREPRGRVPGSVDHAKMHAEARRLLDTLGMDISTHTPVHRLGVAQQQMIEIAKALSQNARILVLDEPTAALSERETEKLFGVIARLKADGVSMIYISHRMAEVFALGDRITVMRDGRKVGSYMPGDATPDELVARMVGRKVDMGYTRTRGGPVGEVALDMQGVSADNGIDDITLQVRAGEIVGLAGLVGSGRSEVARAVFGADPVRAGEIRIFGKSMRGGPDKARALGAALIPESRKTEGLALIRSVRDNLLLAGLRRAFPAHWYRSGKAAQLSTREIGRLRIATPSGDQLAQFLSGGNQQKIVIGKWLVAESRLFIFDEPTRGIDVGAKAEIFALIDGLVKQGAAVLLISSELPEIINVCDRTYVMRGGRVAGELAHDAMTEESILQLGMNDA
MGSDKIHHHHHHMNATQTQMRREINEIPDAVERLLTEGAGAVAATAADIRDLQPSYLLSVARGSSDHASTYLKYASELLLGLPMASVGPSVKSIYGVDLHCKGALSISVSQSGKSPDIVQLTSAFRDKGAYTVAITNDAGSPLAETAAAVLPIHAGPELSVAATKTFVTSLVAGLWVLAEVKQDAALLEAILRLPGHLAKAKDCDWSAAIEAIDGQSLYTLGRGPSWAISNEAALKFKETCQIHAESYSAAEVLHGPVSIVGENFPVIAFAAADAAEESVGEMVAALGDKGARVFATTHKAKGAEVLPHVRTDHWITDPIASIVSFYGMVEAVAARRGVNPDAPRHLNKVTETV
MGSDKIHHHHHHMNDALITDALIRGRHAKRGFHRERPVPLETVRDILAVAKYAPSSSNTQPWRCYVVIGDARDRLANAAVEAYRADPENLTPEYPFFPKPLHEPYSARFNTFRGQLGDAQGVPRSDKAGRRRDVERQFRFFDAPIGLIFTMDRRLEWASFLCYGCFLQNIMLAARARGLDTCPQQIWSLQYAVLREQLDIPEGEMVVAGMSLGYADDSLPENNMALRRLELEEFVSVIEG
MGSDKIHHHHHHMNEAFLSLTPAQIRHRLHAAPELSGQETETARRVAGWLEQAGATRIVTGLGGHGVAGVFAGTLPGPRVMFRAELDGLPIDETAEIAWKSTCEHVAHSCGHDGHMAVLLGLAQRLAEQPPTHGETVLLFQPSEETGRGAREVVESSRFEEIAPDHVYALHNLPGKPLGEVSVREGAMTCASRGLIIRLNGLCAHAAHPEQGRNPALAMCRILQGLKRLPQQLPDDQGLVMVTLIHARLGEVAFGTSPGQAEVMATLRTEDDAMMRALAEASVALARAEAEEDDLGIEIDWCDVFQATRNHPAAVASIREAARSLNMPLTALPEAHRWSEDFGWLAAQGQGALLTLGAGERCLPLHNPGYDFPDDLLDTGIALFERLVRLHQSDV
MGSDKIHHHHHHMNEQWFLLGDIHGSAQPVHYFYQKNKERLSLDSSENFMILLGDVGANFALTGQRDHKFKSELSKLPFTFICLRGNHEARVKTVMDKNPDGWETISKYDGSIFVEKEFPYIEYLADGPAVYNFKSYKTLSLPGAYSVDKYYRQARHLTWYKDEQLNEKEMELGRKLCRNEAPFDLVLSHTCPYLYEPTDLFLAGLDQSTVDSTMERYLGEIEFNLDYKRWAFGHFHADRLYPWADGRQMLMLFNENVVNLDKFMNMTEKQSFKDIIA
MGSDKIHHHHHHMNFDFDLPAKALFRAMPICRENTRFNIDGVLIDPDPNGGAWLVATDGKGMLVQYDPDTKVPEKCVVKVSAAWLTETRFDYDMSLIGDLNDIHWCDTRLEFSKDTMTAMSSDFDIAHCLAEAGPDVFCQIRYNPISFPDWRKALDTSANTSELARPVERQTALDTGYLTDLIGWSRGFQVNPAPAGHARLISFVGEPNTFAVLMPMVADATDPLPPLLERAGRADLIQGPQRAAE
MGSDKIHHHHHHMNFPRPLVPATLVQRYKRFLFDAILADGTAITGSCPNTGSMRGLTIPGSPIWLSEHDSPTRKYRHMLEIVEADGTLVGINTGLPNRIAEEAIMAGQVGNLHTYGTLRREQRYGRNSRIDILLSDAEKGLAYVEVKNVHFSRVRGLAEFPDSPTQRGAKHLEELGDMVEAGHRAIMLYLIQRGDCSRFRICRELDPVYARAFERASARGVEAYAVKCAVSPGQIVAAGPIVVDEPVPAVL
MGSDKIHHHHHHMNFTQNEKLKQLSERSIVIGVDIASELHYARAFDWRGVELGKVFKFENSAEGFKNLYAWIERIKRQAQKDSIVVGAEPTGHYWFGLASYLKEQNIKLVLVNPFHVKRSKELDDNHPSKTDAKDPKTIAKLVIEGRYNEPYIPEGLYAELRIAVTCRVRIQKEMNSIKNRIQRWLKIYFPEHETVFGKFDATSSMLVLQVAPLPRDIERLGVEGINRIWRDNKLRAVGMKRAKSLYEAAQKSIGCTEGESCSRMEIQLLLQDYHTKTAQYQAVTETIDGLCRQIPEVAKLLEIKGVGLVTVAGFLSEVGDIKRFNSPKQIQKLAGLALRESSSGKHKGQTTISKRGRARLRAILFQAVMPLVAKNAEFAEIHNYYTTRTQNPLKKKQSLIALSCKLIRVFYAILTKGTDYDPKKLIMDIHRPVEYLAA
MGSDKIHHHHHHMNHTSADTTLRAFAQLIAEGTCLPAEERAPGQLKTGVDLGTANIVLSVVDANNRPVTGAMFPSTVVRDGIVVDYVGAVSVVRRLKAELEDRLGCPLTFAGTAIPPGILAGNVKAIANVVEAAGFEVADVSDEPTAASRVLGLREGAVVDVGGGTTGISILKNGEVVFTDDEATGGTHMTLVLAGAHGVSFEEAEAMKKDTAAARDVFAVVQPVVEKMASIVKRCLKGYDVETVYVVGGACTFDQFEQVFRKEIGLTIVKPAEPLLVTPLGIAMYGATPGEGAL
MGSDKIHHHHHHMNIIPYRVTLLEPLLATRIAGDPNSGVSYPYVPGSLVRGAAVAMYARNKGIVAVDAREEEARRLFFDGRTRYLNAYPADASGRRTLPTPRSLFHVEGEESPIYDFALEVIDAVNEETVQFVGAARDSQPFCRIDDSNIFFISPKRRINVHTQRDRVKGRATEVSGAVFQYDALEEGQTFAGWVLVDKDDDVELLSSLLRHIYRLGGSSNSGYGRVTVAVDAPQNIQVWREIPKQIVPIDAGETFVVTLLSDTLVRDPNTGQYTWDLRPALQQLLSVEIEHIHPIAGEEEQRSVWRLDEVGGFNRAWGLPLPQAQAIAGGSVFVFRARSPIPAQTIAGAEWDGIGERRAEGFGRLAFNWQTETELIRVDPPVVSLIDQLVPNLDGPARNIAQQMAMRMLRRELDAKLRKAINDIRPKHLSISNTQLSRLRIIAREALPNGDLARLQKYLDENIKTRRSVRDQFDRTRLGSEERLSQWLEERLSQPETVWDKIGAQTLSKRIGANVLVSTRDDTELAREYTIRLIDGVLARLAKERRREDGGRQ
MGSDKIHHHHHHMNILEYENYHEDKTHVELTFPYNTYLCSIPLDFSGVPLHWHDDMELIYIKKGCGHISVDFKEYHVTAPSLVLILPGQLHSIDQYMDESMEYENIIFSLSMLLPGKYDYTKEDFLTPLLAGRFTVPTVFTPVYPYYEDVVAPIDACDEICKTMPQGYQLYIKSKLYEFFFVLDNRCRNLTKPLKSKKTLDKMKVVLKYVENNYADKISIADIADVAGFSESHFMRYFKETMGTSFVDYLKDYRLTMAARLLQSSDSSVLSISGEVGFESLSYFNRAFKKHYGMTPLQYRKGS
MGSDKIHHHHHHMNILLVDDDRFIIEALREKINWAKLHIDIVYVAYSLTQAQNIIREHPIDLMISDIEMPQGSGLELLSWIRNEKYDIKTIFLTNYADFNYAQKAIELQSFEYYLKPINFEKLEFIIQKAISKIENHNLNGKNDSLLQIEDNFWYDYLRKPQISRIDELENIASKQDFILKQHQYFFLAVLTINLNEEDYSVETPSWTSQLKRELQRISQPSYKLISLFKMESQVDQYVCLFRVDSSKRSDKLAYEIHSQISNNFSKYSNIIYKSCHKISDILFHTKELYTYNEQYVSYWNTITCVPHSFPTSFKTETLSITFLDTLSEYELREKINSLAYNSQIPTFTLQQILLDWTQQIGIYLDQNGISAHKLFQNSTHDFLFQRRFHSIESFQDYFDYYWSHAKKFATNIENQKNSIQRIVEYIDHHYYEDINRSILADVVYLSADHLARIFKKETGETLVKYITDKRINAAKSLLSQTNISISQVSCQVGYDNYSYFTKIFKQRTGLSPGDYRKTYQNKM
